T1: IL1RL1 (UniProt Q01638 19-328, limits assumed)
T1 construct: SPR analyte
T1 sequence (looked up): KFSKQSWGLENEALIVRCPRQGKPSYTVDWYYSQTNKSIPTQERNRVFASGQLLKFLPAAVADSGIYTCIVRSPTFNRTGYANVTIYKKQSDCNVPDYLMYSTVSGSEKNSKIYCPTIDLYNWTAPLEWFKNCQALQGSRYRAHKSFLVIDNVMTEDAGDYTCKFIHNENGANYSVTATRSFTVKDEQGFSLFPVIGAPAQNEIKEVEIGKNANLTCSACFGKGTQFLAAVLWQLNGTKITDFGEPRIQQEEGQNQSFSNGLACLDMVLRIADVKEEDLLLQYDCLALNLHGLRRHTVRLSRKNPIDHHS

T2: IL1RL1 over-expressed on Expi293 cells (UniProt Q01638 19-556, limits assumed)
T2 construct: whole, on cells; Target of the flow cytometry MFI ratio (over-expressing cells over parent cells); also called cytokine over-expressing Expi293 cells
T2 sequence (looked up): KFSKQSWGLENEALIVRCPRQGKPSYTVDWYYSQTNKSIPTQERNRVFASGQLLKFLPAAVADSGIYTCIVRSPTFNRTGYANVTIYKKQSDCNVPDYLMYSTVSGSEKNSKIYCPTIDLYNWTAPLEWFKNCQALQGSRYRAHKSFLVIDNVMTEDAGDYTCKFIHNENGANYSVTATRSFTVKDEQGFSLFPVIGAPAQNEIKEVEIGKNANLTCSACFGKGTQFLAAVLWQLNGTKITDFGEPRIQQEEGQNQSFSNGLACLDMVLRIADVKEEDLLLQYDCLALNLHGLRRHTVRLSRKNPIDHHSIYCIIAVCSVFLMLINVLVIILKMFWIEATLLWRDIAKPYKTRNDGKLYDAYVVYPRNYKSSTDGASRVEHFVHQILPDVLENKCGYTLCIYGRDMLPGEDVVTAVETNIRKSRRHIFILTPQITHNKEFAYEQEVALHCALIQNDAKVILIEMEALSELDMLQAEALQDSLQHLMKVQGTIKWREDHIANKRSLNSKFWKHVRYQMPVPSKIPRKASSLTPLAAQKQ


Key:
[1] = molecular target: T1, IL1RL1; assay: SPR (Carterra LSA), antibody amine-coupled, 1:1 model;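 further: HC30M sensor chip at 25 °C in HBS-TE, analyte at rising concentrations in buffer containing 0.5 mg/mL BSA, 5 min association then 15 min dissociation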
[2] = molecular target: T2, IL1RL1 over-expressed on Expi293 cells; assay: flow cytometry, 100 nM antibody, over-expressing Expi293 / parent cells
Protocol: All incubations and washes were in buffer containing PBS+1% BSA. MFI Ratio is defined by the mean fluorescence intensity (MFI) of the cytokine over-expressing Expi293 cell over the Expi293 parent cell. […] EC50 was calculated in GraphPad Prism.

Binder	Kd [1]	koff [1]	kon [1]	100 nM FACS (MFI Ratio) [2]
IL1RL1-45 (Fc fusion, not shown: a dimerising Fc or GST, VHH-Fc on IgG2 Fc) VHH: EVQLVESGGGLVQPGGSLRLSCAASGRTLSSYTMGWFRQAPGKEREFVAGIWSGGYTHYADSVKGRFTISADNSKNTAYLQMNSLKPEDTAVYYCAAVSSNSETFDWGQGTLVTVSS	1.19 nM	0.000326 s⁻¹	275000 M⁻¹ s⁻¹	704 MFI ratio
IL1RL1-83 (Fc fusion, not shown: a dimerising Fc or GST, VHH-Fc on IgG2 Fc) VHH: EVQLVESGGGLVQPGGSLRLSCAASGRSISDYTMGWFRQAPGKEREFVAGIWSGGYTHYADSVKGRFTISADNSKNTAYLQMNSLKPEDTAVYYCAAVSSNSETFDWGQGTLVTVSS	1.2 nM	0.00016 s⁻¹	134000 M⁻¹ s⁻¹	628 MFI ratio
IL1RL1-21 (Fc fusion, not shown: a dimerising Fc or GST, VHH-Fc on IgG2 Fc) VHH: EVQLVESGGGLVQPGGSLRLSCAASGTITSAVFMGWFRQAPGKEREFVAGIIGSGGATYYADSVKGRFTISADNSKNTAYLQMNSLKPEDTAVYYCAASRYARERDVHAYDWGQGTLVTVSS	0.409 nM	5.04e-05 s⁻¹	123000 M⁻¹ s⁻¹	521 MFI ratio
IL1RL1-19 (Fc fusion, not shown: a dimerising Fc or GST, VHH-Fc on IgG2 Fc) VHH: EVQLVESGGGLVQPGGSLRLSCAASGRTDSTASMGWFRQAPGKEREEVAAISWSGGRTYYADSVKGRFTISADNSKNTAYLQMNSLKPEDTAVYYCARLAFQGNTVFDLWGQGTLVTVSS	0.104 nM	1.29e-05 s⁻¹	123000 M⁻¹ s⁻¹	486 MFI ratio
IL1RL1-92 (Fc fusion, not shown: a dimerising Fc or GST, VHH-Fc on IgG2 Fc) VHH: EVQLVESGGGLVQPGGSLRLSCAASGRTHSTASMGWFRQAPGKEREEVAAISWSGGRTYYADSVKGRFTISADNSKNTAYLQMNSLKPEDTAVYYCARLAFQGNTVFDLWGQGTLVTVSS	4.4 nM	0.000619 s⁻¹	141000 M⁻¹ s⁻¹	484 MFI ratio
IL1RL1-15 (Fc fusion, not shown: a dimerising Fc or GST, VHH-Fc on IgG2 Fc) VHH: EVQLVESGGGLVQPGGSLRLSCAASGRTYSISAMGWFRQAPGKEREWVSSIGIAGTPTFYADSVKGRFTISADNSKNTAYLQMNSLKPEDTAVYYCAAGVTGGAAYGWGQGTLVTVSS	3.23 nM	0.00041 s⁻¹	127000 M⁻¹ s⁻¹	331 MFI ratio
IL1RL1-49 (Fc fusion, not shown: a dimerising Fc or GST, VHH-Fc on IgG2 Fc) VHH: EVQLVESGGGLVQPGGSLRLSCAASGRTVTMGWFRQAPGKEREFVAGINWESGSTDYADSVKGRFTISADNSKNTAYLQMNSLKPEDTAVYYCAALALGTDQSSTFDWGQGTLVTVSS	2.42 nM	0.000673 s⁻¹	277000 M⁻¹ s⁻¹	248 MFI ratio
IL1RL1-39 (Fc fusion, not shown: a dimerising Fc or GST, VHH-Fc on IgG2 Fc) VHH: EVQLVESGGGLVQPGGSLRLSCAASGGTFSVYAMGWFRQAPGKEREAVASISTSGGSTYYADSVKGRFTISADNSKNTAYLQMNSLKPEDTAVYYCAIGGTLYDRRRFEWGQGTLVTVSS	0.688 nM	5.5e-05 s⁻¹	80000 M⁻¹ s⁻¹	267 MFI ratio
IL1RL1-44 (Fc fusion, not shown: a dimerising Fc or GST, VHH-Fc on IgG2 Fc) VHH: EVQLVESGGGLVQPGGSLRLSCAASGDYYAMGWFRQAPGKEREWVSSIGIAGTPTFYADSVKGRFTISADNSKNTAYLQMNSLKPEDTAVYYCAANVGVTGSYEWGQGTLVTVSS	≤ 0.016 nM	≤ 1e-05 s⁻¹	626000 M⁻¹ s⁻¹	448 MFI ratio
IL1RL1-40 (Fc fusion, not shown: a dimerising Fc or GST, VHH-Fc on IgG2 Fc) VHH: EVQLVESGGGLVQPGGSLRLSCAASGRTFSDYVMGWFRQAPGKEREIVAAIAWTGTTDYADSVKGRFTISADNSKNTAYLQMNSLKPEDTAVYYCAARIRGKVTVDNFDYAWGQGTLVTVSS	7.31 nM	0.00116 s⁻¹	159000 M⁻¹ s⁻¹	415 MFI ratio
IL1RL1-24 (Fc fusion, not shown: a dimerising Fc or GST, VHH-Fc on IgG2 Fc) VHH: EVQLVESGGGLVQPGGSLRLSCAASGGTAYAMGWFRQAPGKEREWVASISTSGSTITPYADSVKGRFTISADNSKNTAYLQMNSLKPEDTAVYYCAAASRSGSGYDWGQGTLVTVSS	1.62 nM	0.000232 s⁻¹	143000 M⁻¹ s⁻¹	438 MFI ratio
IL1RL1-59 (Fc fusion, not shown: a dimerising Fc or GST, VHH-Fc on IgG2 Fc) VHH: EVQLVESGGGLVQPGGSLRLSCAASGGTAYAMGWFRQAPGKEREWVASISTSGSTITPYADSVKGRFTISADNSKNTAYLQMNSLKPEDTAVYYCAANVGVTGSYEWGQGTLVTVSS	≤ 0.0748 nM	≤ 1e-05 s⁻¹	134000 M⁻¹ s⁻¹	374 MFI ratio
IL1RL1-22 (Fc fusion, not shown: a dimerising Fc or GST) VHH: EVQLVESGGGLVQPGGSLRLSCAASGRTSNIYAMGWFRQAPGKEREWVASISTSGSTITPYADSVKGRFTISADNSKNTAYLQMNSLKPEDTAVYYCAIAHGSSTYNWGQGTLVTVSS	1.36 nM	0.000243 s⁻¹	179000 M⁻¹ s⁻¹	294 MFI ratio
IL1RL1-27 (Fc fusion, not shown: a dimerising Fc or GST, VHH-Fc on IgG2 Fc) VHH: EVQLVESGGGLVQPGGSLRLSCAASGGTISTYAIGWFRQAPGKEREGVAAISPGNNTHYADSVKGRFTISADNSKNTAYLQMNSLKPEDTAVYYCAARPVRVDDISLPVGFDWGQGTLVTVSS	3.7 nM	0.000372 s⁻¹	101000 M⁻¹ s⁻¹	450 MFI ratio
IL1RL1-25 (Fc fusion, not shown: a dimerising Fc or GST, VHH-Fc on IgG2 Fc) VHH: EVQLVESGGGLVQPGGSLRLSCAASGGTFNGRAMGWFRQAPGKEREGVATINSGGGTNYADSVKGRFTISADNSKNTAYLQMNSLKPEDTAVYYCALRRLSPPPLLDWGQGTLVTVSS	1.47 nM	0.000392 s⁻¹	267000 M⁻¹ s⁻¹	69.5 MFI ratio
IL1RL1-17 (Fc fusion, not shown: a dimerising Fc or GST, VHH-Fc on IgG2 Fc) VHH: EVQLVESGGGLVQPGGSLRLSCAASGRDLDYYAMGWFRQAPGKEREWVSSIGIAGTPTFYADSVKGRFTISADNSKNTAYLQMNSLKPEDTAVYYCAVVDLLRGKLWGQGTLVTVSS	2.76 nM	0.000588 s⁻¹	213000 M⁻¹ s⁻¹	415 MFI ratio
IL1RL1-26 (Fc fusion, not shown: a dimerising Fc or GST, VHH-Fc on IgG2 Fc) VHH: EVQLVESGGGLVQPGGSLRLSCAASGLTTVYTMGWFRQAPGKERESVASISWTGGTTYYADSVKGRFTISADNSKNTAYLQMNSLKPEDTAVYYCAAIAHEEGVYRWDWGQGTLVTVSS	3.12 nM	0.000618 s⁻¹	198000 M⁻¹ s⁻¹	310 MFI ratio
IL1RL1-20 (Fc fusion, not shown: a dimerising Fc or GST, VHH-Fc on IgG2 Fc) VHH: EVQLVESGGGLVQPGGSLRLSCAASGFSLDDRVMGWFRQAPGKEREFVAGITLGGSTSYADSVKGRFTISADNSKNTAYLQMNSLKPEDTAVYYCAAAPVPWGTRPSLLTYDWGQGTLVTVSS	0.302 nM	2.92e-05 s⁻¹	96600 M⁻¹ s⁻¹	396 MFI ratio
IL1RL1-47 (Fc fusion, not shown: a dimerising Fc or GST, VHH-Fc on IgG2 Fc) VHH: EVQLVESGGGLVQPGGSLRLSCAASGRTFSMGWFRQAPGKEREWVASISTSGSTITPYADSVKGRFTISADNSKNTAYLQMNSLKPEDTAVYYCAAQGSLYDDYDGLPIKYDWGQGTLVTVSS	4.73 nM	0.00031 s⁻¹	65600 M⁻¹ s⁻¹	467 MFI ratio
IL1RL1-23 (Fc fusion, not shown: a dimerising Fc or GST, VHH-Fc on IgG2 Fc) VHH: EVQLVESGGGLVQPGGSLRLSCAASGRTFSTASMGWFRQAPGKEREWVASISTSGSTITPYADSVKGRFTISADNSKNTAYLQMNSLKPEDTAVYYCAVVDLLRGKLWGQGTLVTVSS	≤ 0.188 nM	≤ 1e-05 s⁻¹	53100 M⁻¹ s⁻¹	526 MFI ratio
IL1RL1-14 (Fc fusion, not shown: a dimerising Fc or GST, VHH-Fc on IgG2 Fc) VHH: EVQLVESGGGLVQPGGSLRLSCAASGDISSIVAMGWFRQAPGKEREWVSSIDTGGGSNIVYADSVKGRFTISADNSKNTAYLQMNSLKPEDTAVYYCAAGLLDVQYVRQAAGYSWGQGTLVTVSS	≤ 0.0744 nM	≤ 1e-05 s⁻¹	134000 M⁻¹ s⁻¹	515 MFI ratio
IL1RL1-16 (Fc fusion, not shown: a dimerising Fc or GST, VHH-Fc on IgG2 Fc) VHH: EVQLVESGGGLVQPGGSLRLSCAASGFSLDYYGMGWFRQAPGKEREGVATINWSGATSYADSVKGRFTISADNSKNTAYLQMNSLKPEDTAVYYCAIPGVWGQGTLVTVSS	5.71 nM	0.0011 s⁻¹	193000 M⁻¹ s⁻¹	478 MFI ratio
IL1RL1-46 (Fc fusion, not shown: a dimerising Fc or GST, VHH-Fc on IgG2 Fc) VHH: EVQLVESGGGLVQPGGSLRLSCAASGFTFSDIAMGWFRQAPGKEREFVAAINWSGGSTKYADSVKGRFTISADNSKNTAYLQMNSLKPEDTAVYYCAYSGIGTDWGQGTLVTVSS	3.06 nM	0.000553 s⁻¹	181000 M⁻¹ s⁻¹	300 MFI ratio

Source: patent publication US20230265179A1 (TWIST BIOSCIENCE, published 2023)
